The subject of the experiment is CD200−, SSEA4+, and CD104+ ocular surface stem cells. The experiment is described as follows: Three-dimensional culture for induction of lacrimal gland organoids from iPS cell-derived ocular surface stem cells. Format: cell-based, Human. To be noted: for promoting lacrimal gland differentiation: 3D culture in Matrigel, 20 ng/mL KGF, 100 ng/mL FGF10, 100 ng/mL BMP7 or 10 μM Y-27632, each plus 10 ng/mL EGF, FIG. 5A. The method, then:
The obtained ocular surface stem cells were seeded on PrimeSurface (registered trademark) 96U plates (Sumitomo Bakelite Co., Ltd.) at 50,000 cells/spheroid in DMEM/F-12 with B27 supplement containing 10 μM Y-27632 and 20 ng/mL KGF and cultured for 1 day to form spheroids (diameter: about 560 μm). The spheroids were embedded in Matrigel GFR (Corning) and cultured in DMEM/F-12 with B27 supplement containing 10 μM Y-27632, 10 ng/mL EGF, and 100 ng/mL TGF-β3 for 2 weeks.
Three-dimensional culture was performed as described in Example 2 in the presence of 10 ng/mL EGF, 10 ng/mL EGF plus 10 μM Y-27632, or 10 ng/mL EGF plus another growth factor reportedly involved in lacrimal gland differentiation, namely, 20 ng/mL KGF, 100 ng/mL FGF10, or 100 ng/mL BMP7.
Similarly, three-dimensional culture was performed in DMEM/F-12 with B27 supplement, 10 ng/mL EGF, and 10 μM Y-27632 containing 100 ng/mL TGF-β1, β2, or β3.
Three-dimensional culture was performed as described in Example 2 in a medium with 10 ng/mL EGF and 10 μM Y-27632 containing 4, 20, or 100 ng/mL TGF-β3.
RNA was collected from each sample using QIAzol Lysis Reagent and subjected to gene expression analysis as described in Example 3.

The record followed here is US12291727B2, “Method for producing stem cell-derived lacrimal gland tissue” (Osaka University, priority 2018, dated 2025).

Take TGF-β: the “maturation of the lacrimal gland structure” value (100 ng/mL TGF-β1, β2 or β3 in medium with 10 ng/mL EGF and 10 μM Y-27632, FIG. 5B) was “helped further maturation of the lacrimal gland structure”.

With `C[C@@H](N)[C@H]1CC[C@H](C(=O)Nc2ccncc2)CC1` [Y-27632, N-(4-pyridinyl)-4β-[(R)-1-aminoethyl]cyclohexane-1α-carboamide, reference compound], the “promoting lacrimal gland differentiation” value was “remarkably promoted lacrimal gland differentiation”.

B1: FGF10: growth factor reportedly involved in lacrimal gland differentiation (protein, UniProt O15520 38-208, looked up)
Fibroblast growth factor 10: QALGQDMVSPEATNSSSSSFSSPSSAGRHVRSYNHLQGDVRWRKLFSFTKYFLKIEKNGKVSGTKKENCPYSILEITSVEIGVVAVKAINSNYYLAMNKKGKLYGSKEFNNDCKLKERIEENGYNTYASFNWQHNGRQMYVALNGKGAPRRGQKTRRKNTSAHFLPMVVHS
For B1, the “promoting lacrimal gland differentiation” value was “less effective”.

B2: TGF-β3: TGF-β subtype added to the medium to promote cell maturation (protein, UniProt P10600 301-412, looked up)
Transforming growth factor …: ALDTNYCFRNLEENCCVRPLYIDFRQDLGWKWVHEPKGYYANFCSGPCPYLRSADTTHSTVLGLYNTLNPEASASPCCVPQDLEPLTILYYVGRTPKVEQLSNMVVKSCKCS
modifications: Transforming growth factor beta-3
notes: TGF-β subtype added to the medium to promote cell maturation
B2: where the note is “4 ng/mL TGF-β3 in medium with 10 ng/mL EGF and 10 μM Y-27632, FIGS. 6A, 6B”, the “maturation (morphology and gene expression)” value is “maturation was promoted to some extent”. Besides, the “extent of maturation, concentration dependence” value (4, 20 or 100 ng/mL TGF-β3 in medium with 10 ng/mL EGF and 10 μM Y-27632) is “increased in a TGF-β3 concentration dependent manner”.

B3: KGF: keratinocyte growth factor, growth factor reportedly involved in lacrimal gland differentiation (protein, UniProt P21781 32-194, looked up)
Fibroblast growth factor 7: CNDMTPEQMATNVNCSSPERHTRSYDYMEGGDIRVRRLFCRTQWYLRIDKRGKVKGTQEMKNNYNIMEIRTVAVGIVAIKGVESEFYLAMNKEGKLYAKKECNEDCNFKELILENHYNTYASAKWTHNGGEMFVALNQKGIPVRGKKTKKEQKTAHFLPMAIT
For B3, the “promoting lacrimal gland differentiation” value was “less effective”.

B4: BMP7: growth factor reportedly involved in lacrimal gland differentiation (protein, UniProt P18075 293-431, looked up)
Bone morphogenetic protein 7: STGSKQRSQNRSKTPKNQEALRMANVAENSSSDQRQACKKHELYVSFRDLGWQDWIIAPEGYAAYYCEGECAFPLNSYMNATNHAIVQTLVHFINPETVPKPCCAPTQLNAISVLYFDDSSNVILKKYRNMVVRACGCH
With B4, the “promoting lacrimal gland differentiation” value is “less effective”.
